{
  "source": "paper PMC10180351",
  "about": "“Modulating Substrate Specificity of Rhizobium sp. Histamine Dehydrogenase through Protein Engineering for Food Quality Applications” (Molecules, 2023)",
  "key": {"[1]": {"molecular_target": "T1, Rhizobium sp. Histamine Dehydrogenase (Rsp HDH) (Rhizobium sp. 4-9, UniProt Q60I59)", "T1 construct": "full length (693 aa native), synthetic E. coli-optimised gene in pET28a(+), C-terminal 6xHis tag kept; E. coli BL21 Gold (DE3); IMAC purified; homodimer with 6-S-Cys-FMN, [4Fe-4S], ADP", "T1 sequence (Q60I59 1-693)": "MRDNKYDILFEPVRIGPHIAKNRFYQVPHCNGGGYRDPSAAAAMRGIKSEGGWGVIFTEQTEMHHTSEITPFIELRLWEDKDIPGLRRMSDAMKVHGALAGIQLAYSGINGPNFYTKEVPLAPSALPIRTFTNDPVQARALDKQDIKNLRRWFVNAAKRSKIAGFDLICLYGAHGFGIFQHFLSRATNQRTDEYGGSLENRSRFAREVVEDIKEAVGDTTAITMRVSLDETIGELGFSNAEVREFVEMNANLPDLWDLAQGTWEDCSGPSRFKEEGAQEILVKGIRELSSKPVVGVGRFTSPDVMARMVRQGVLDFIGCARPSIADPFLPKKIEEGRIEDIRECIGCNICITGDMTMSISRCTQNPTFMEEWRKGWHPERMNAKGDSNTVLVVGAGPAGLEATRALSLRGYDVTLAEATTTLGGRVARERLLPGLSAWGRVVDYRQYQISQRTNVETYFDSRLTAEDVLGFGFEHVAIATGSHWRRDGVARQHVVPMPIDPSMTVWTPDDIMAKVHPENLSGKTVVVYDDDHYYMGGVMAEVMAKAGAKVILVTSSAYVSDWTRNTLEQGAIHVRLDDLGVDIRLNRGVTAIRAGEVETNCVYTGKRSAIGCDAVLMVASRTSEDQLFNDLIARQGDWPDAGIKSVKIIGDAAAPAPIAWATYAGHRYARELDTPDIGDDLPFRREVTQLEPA", "experiment": "WST-8 / 1-methoxy PMS colorimetric initial rate, […] nm, substrate inhibition fit", "format": "biochemical", "settings": "substrate inhibition by histamine itself; 1-methoxy PMS electron carrier; glycine buffer pH 9.0, 37 °C", "text": "(§1) Histamine Dehydrogenase (Rsp HDH)"}, "purified protein [2]": {"substrate": "N=C(N)NCCCCN", "experiment": "purified protein", "format": "biochemical, Rhizobium sp. 4-9", "settings": "1-methoxy PMS electron carrier, glycine buffer pH 9.0, 37 °C", "text": "as §1"}, "purified protein [3]": {"substrate": "NCCc1c[nH]cn1", "experiment": "purified protein", "format": "biochemical, Rhizobium sp. 4-9", "settings": "1-methoxy PMS electron carrier, glycine buffer pH 9.0, 37 °C", "text": "as §1"}},
  "data": [
    {"molecule": "NCCc1c[nH]cn1", "note": "[histamine]", "values": [
      {"measurement": "Observed Ki", "setting": "[1]", "result": 2059.0, "unit": "µM"}
    ]},
    {"molecule": "Rhizobium sp. Histamine Dehydrogenase (Rsp HDH) (Rhizobium sp. 4-9) (protein, full length (693 aa native), synthetic E. coli-optimised gene in pET28a(+), C-terminal 6xHis tag kept; E. coli BL21 Gold (DE3); IMAC purified; homodimer with 6-S-Cys-FMN, [4Fe-4S], ADP) MRDNKYDILFEPVRIGPHIAKNRFYQVPHCNGGGYRDPSAAAAMRGIKSEGGWGVIFTEQTEMHHTSEITPFIELRLWEDKDIPGLRRMSDAMKVHGALAGIQLAYSGINGPNFYTKEVPLAPSALPIRTFTNDPVQARALDKQDIKNLRRWFVNAAKRSKIAGFDLICLYGAHGFGIFQHFLSRATNQRTDEYGGSLENRSRFAREVVEDIKEAVGDTTAITMRVSLDETIGELGFSNAEVREFVEMNANLPDLWDLAQGTWEDCSGPSRFKEEGAQEILVKGIRELSSKPVVGVGRFTSPDVMARMVRQGVLDFIGCARPSIADPFLPKKIEEGRIEDIRECIGCNICITGDMTMSISRCTQNPTFMEEWRKGWHPERMNAKGDSNTVLVVGAGPAGLEATRALSLRGYDVTLAEATTTLGGRVARERLLPGLSAWGRVVDYRQYQISQRTNVETYFDSRLTAEDVLGFGFEHVAIATGSHWRRDGVARQHVVPMPIDPSMTVWTPDDIMAKVHPENLSGKTVVVYDDDHYYMGGVMAEVMAKAGAKVILVTSSAYVSDWTRNTLEQGAIHVRLDDLGVDIRLNRGVTAIRAGEVETNCVYTGKRSAIGCDAVLMVASRTSEDQLFNDLIARQGDWPDAGIKSVKIIGDAAAPAPIAWATYAGHRYARELDTPDIGDDLPFRREVTQLEPA", "values": [
      {"measurement": "Km", "setting": "purified protein [2]", "result": 130.1, "unit": "µM"},
      {"measurement": "Km", "setting": "purified protein [3]", "result": 38.24, "unit": "µM"}
    ]},
    {"molecule": "Rhizobium sp. Histamine Dehydrogenase (Rsp HDH) (Rhizobium sp. 4-9; F72T) (protein, full length (693 aa native), synthetic E. coli-optimised gene in pET28a(+), C-terminal 6xHis tag kept; E. coli BL21 Gold (DE3); IMAC purified; homodimer with 6-S-Cys-FMN, [4Fe-4S], ADP) MRDNKYDILFEPVRIGPHIAKNRFYQVPHCNGGGYRDPSAAAAMRGIKSEGGWGVIFTEQTEMHHTSEITPTIELRLWEDKDIPGLRRMSDAMKVHGALAGIQLAYSGINGPNFYTKEVPLAPSALPIRTFTNDPVQARALDKQDIKNLRRWFVNAAKRSKIAGFDLICLYGAHGFGIFQHFLSRATNQRTDEYGGSLENRSRFAREVVEDIKEAVGDTTAITMRVSLDETIGELGFSNAEVREFVEMNANLPDLWDLAQGTWEDCSGPSRFKEEGAQEILVKGIRELSSKPVVGVGRFTSPDVMARMVRQGVLDFIGCARPSIADPFLPKKIEEGRIEDIRECIGCNICITGDMTMSISRCTQNPTFMEEWRKGWHPERMNAKGDSNTVLVVGAGPAGLEATRALSLRGYDVTLAEATTTLGGRVARERLLPGLSAWGRVVDYRQYQISQRTNVETYFDSRLTAEDVLGFGFEHVAIATGSHWRRDGVARQHVVPMPIDPSMTVWTPDDIMAKVHPENLSGKTVVVYDDDHYYMGGVMAEVMAKAGAKVILVTSSAYVSDWTRNTLEQGAIHVRLDDLGVDIRLNRGVTAIRAGEVETNCVYTGKRSAIGCDAVLMVASRTSEDQLFNDLIARQGDWPDAGIKSVKIIGDAAAPAPIAWATYAGHRYARELDTPDIGDDLPFRREVTQLEPA", "values": [
      {"measurement": "Km", "setting": "purified protein [2]", "result": 112.9, "unit": "µM"},
      {"measurement": "Km", "setting": "purified protein [3]", "result": 194.6, "unit": "µM"}
    ]},
    {"molecule": "Rhizobium sp. Histamine Dehydrogenase (Rsp HDH) (Rhizobium sp. 4-9; N110V) (protein, full length (693 aa native), synthetic E. coli-optimised gene in pET28a(+), C-terminal 6xHis tag kept; E. coli BL21 Gold (DE3); IMAC purified; homodimer with 6-S-Cys-FMN, [4Fe-4S], ADP) MRDNKYDILFEPVRIGPHIAKNRFYQVPHCNGGGYRDPSAAAAMRGIKSEGGWGVIFTEQTEMHHTSEITPFIELRLWEDKDIPGLRRMSDAMKVHGALAGIQLAYSGIVGPNFYTKEVPLAPSALPIRTFTNDPVQARALDKQDIKNLRRWFVNAAKRSKIAGFDLICLYGAHGFGIFQHFLSRATNQRTDEYGGSLENRSRFAREVVEDIKEAVGDTTAITMRVSLDETIGELGFSNAEVREFVEMNANLPDLWDLAQGTWEDCSGPSRFKEEGAQEILVKGIRELSSKPVVGVGRFTSPDVMARMVRQGVLDFIGCARPSIADPFLPKKIEEGRIEDIRECIGCNICITGDMTMSISRCTQNPTFMEEWRKGWHPERMNAKGDSNTVLVVGAGPAGLEATRALSLRGYDVTLAEATTTLGGRVARERLLPGLSAWGRVVDYRQYQISQRTNVETYFDSRLTAEDVLGFGFEHVAIATGSHWRRDGVARQHVVPMPIDPSMTVWTPDDIMAKVHPENLSGKTVVVYDDDHYYMGGVMAEVMAKAGAKVILVTSSAYVSDWTRNTLEQGAIHVRLDDLGVDIRLNRGVTAIRAGEVETNCVYTGKRSAIGCDAVLMVASRTSEDQLFNDLIARQGDWPDAGIKSVKIIGDAAAPAPIAWATYAGHRYARELDTPDIGDDLPFRREVTQLEPA", "values": [
      {"measurement": "Km", "setting": "purified protein [2]", "result": 170.1, "unit": "µM"},
      {"measurement": "Km", "setting": "purified protein [3]", "result": 159.5, "unit": "µM"}
    ]}
  ]
}
